T1: human RXFP1 (human, UniProt Q9HBX9 1-757)
T1 sequence (looked up): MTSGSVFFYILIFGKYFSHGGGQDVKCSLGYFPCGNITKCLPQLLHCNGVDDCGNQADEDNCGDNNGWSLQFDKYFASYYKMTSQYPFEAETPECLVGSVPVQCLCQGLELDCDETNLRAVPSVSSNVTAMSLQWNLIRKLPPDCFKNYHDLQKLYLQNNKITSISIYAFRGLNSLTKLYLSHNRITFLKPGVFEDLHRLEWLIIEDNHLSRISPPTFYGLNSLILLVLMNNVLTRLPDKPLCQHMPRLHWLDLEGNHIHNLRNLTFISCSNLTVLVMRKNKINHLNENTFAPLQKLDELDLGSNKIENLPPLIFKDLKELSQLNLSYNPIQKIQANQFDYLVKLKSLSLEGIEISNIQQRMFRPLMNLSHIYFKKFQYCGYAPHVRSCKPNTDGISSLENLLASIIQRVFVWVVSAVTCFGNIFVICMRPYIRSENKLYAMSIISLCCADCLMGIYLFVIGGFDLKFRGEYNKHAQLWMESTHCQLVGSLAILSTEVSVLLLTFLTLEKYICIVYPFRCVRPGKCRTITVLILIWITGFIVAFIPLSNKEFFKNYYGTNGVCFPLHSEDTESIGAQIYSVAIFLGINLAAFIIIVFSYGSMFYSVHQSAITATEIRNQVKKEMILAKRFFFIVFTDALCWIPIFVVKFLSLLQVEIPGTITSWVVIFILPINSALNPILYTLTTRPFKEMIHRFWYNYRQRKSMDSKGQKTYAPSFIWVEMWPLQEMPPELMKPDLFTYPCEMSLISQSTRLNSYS

T2: mouse RXFP1 (mouse, UniProt Q6R6I7 1-758)
T2 sequence (looked up): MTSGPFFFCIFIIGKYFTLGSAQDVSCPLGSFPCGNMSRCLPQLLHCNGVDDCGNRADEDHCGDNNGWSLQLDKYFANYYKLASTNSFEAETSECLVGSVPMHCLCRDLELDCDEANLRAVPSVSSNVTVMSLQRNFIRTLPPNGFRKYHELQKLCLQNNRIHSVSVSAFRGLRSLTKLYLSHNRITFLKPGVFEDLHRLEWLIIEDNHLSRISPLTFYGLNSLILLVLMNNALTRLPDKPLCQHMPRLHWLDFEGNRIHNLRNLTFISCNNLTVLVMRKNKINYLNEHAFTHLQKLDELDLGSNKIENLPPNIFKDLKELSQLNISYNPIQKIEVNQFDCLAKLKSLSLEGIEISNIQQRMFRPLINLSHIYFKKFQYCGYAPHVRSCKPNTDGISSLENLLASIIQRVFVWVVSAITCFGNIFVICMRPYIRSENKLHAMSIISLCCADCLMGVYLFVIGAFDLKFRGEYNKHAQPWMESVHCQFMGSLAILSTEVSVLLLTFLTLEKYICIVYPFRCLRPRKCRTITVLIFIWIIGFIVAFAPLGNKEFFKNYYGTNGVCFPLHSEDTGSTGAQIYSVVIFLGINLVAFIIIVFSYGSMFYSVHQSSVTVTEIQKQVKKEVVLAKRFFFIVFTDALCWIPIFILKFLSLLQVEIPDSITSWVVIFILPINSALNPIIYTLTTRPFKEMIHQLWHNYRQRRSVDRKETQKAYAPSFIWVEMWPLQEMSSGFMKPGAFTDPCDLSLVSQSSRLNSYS

B1: RELAX0013 (ligand)
chain 1: DSWMEEVIKLCGRELVRAQIAICGMSTWS
chain 2: QLYSALANKCCHVGCTKRSLARFC
B2: RELAX0019 (Fc fusion)
chain 1: GGAGGACPPCPAPEFEGGPSVFLFPPKPKDTLMISRTPEVTCVVVDVSHEDPEVKFNWYVDGVEVHNAKTKPREEQYNSTYRVVSVLTVLHQDWLNGKEYKCKVSNKALPASIEKTISKAKGQPREPQVYTLPPCREEMTKNQVSLWCLVKGFYPSDIAVEWESNGQPENNYKTTPPVLDSDGSFFLYSKLTVDKSRWQQGNVFSCSVMHEALHNHYTQKSLSLSPGGGGGSGGGGSGGGGSGGGGGSQLYSALANKCCHVGCTKRSLARFC
chain 2: GGAGGACPPCPAPEFEGGPSVFLFPPKPKDTLMISRTPEVTCVVVDVSHEDPEVKFNWYVDGVEVHNAKTKPREEQYNSTYRVVSVLTVLHQDWLNGKEYKCKVSNKALPASIEKTISKAKGQPREPQVCTLPPSREEMTKNQVSLSCAVKGFYPSDIAVEWESNGQPENNYKTTPPVLDSDGSFFLVSKLTVDKSRWQQGNVFSCSVMHEALHNHYTQKSLSLSPGGGGGSGGGGSGGGGSGGGGGSSWMEEVIKLCGRELVRAQIAICGMSTWS
B3: RELAX0023 (Fc fusion)
chain 1: DKTHTCPPCPAPEFEGGPSVFLFPPKPKDTLMISRTPEVTCVVVDVSHEDPEVKFNWYVDGVEVHNAKTKPREEQYNSTYRVVSVLTVLHQDWLNGKEYKCKVSNKALPASIEKTISKAKGQPREPQVYTLPPCREEMTKNQVSLWCLVKGFYPSDIAVEWESNGQPENNYKTTPPVLDSDGSFFLYSKLTVDKSRWQQGNVFSCSVMHEALHNHYTQKSLSLSPGGGGGSGGGGSGGGGSGGGGGSQLYSALANKCCHVGCTKRSLARFC
chain 2: DKTHTCPPCPAPEFEGGPSVFLFPPKPKDTLMISRTPEVTCVVVDVSHEDPEVKFNWYVDGVEVHNAKTKPREEQYNSTYRVVSVLTVLHQDWLNGKEYKCKVSNKALPASIEKTISKAKGQPREPQVCTLPPSREEMTKNQVSLSCAVKGFYPSDIAVEWESNGQPENNYKTTPPVLDSDGSFFLVSKLTVDKSRWQQGNVFSCSVMHEALHNHYTQKSLSLSPGGGGGSGGGGSGGGGSGGGGGSSWMEEVIKLCGRELVRAQIAICGMSTWS
B4: RELAX0117 (Fc fusion)
chain 1: QLYSALANKCCHVGCTKRSLARFCAAAGGGGSGGGGSGGGGSGGGGSACPPCPAPEFEGGPSVFLFPPKPKDTLMISRTPEVTCVVVDVSHEDPEVKFNWYVDGVEVHNAKTKPREEQYNSTYRVVSVLTVLHQDWLNGKEYKCKVSNKALPASIEKTISKAKGQPREPQVYTLPPCREEMTKNQVSLWCLVKGFYPSDIAVEWESNGQPENNYKTTPPVLDSDGSFFLYSKLTVDKSRWQQGNVFSCSVMHEALHNHYTQKSLSLSPGGGGGSGGGGSGGGGSGGGGGSQLYSALANKCCHVGCTKRSLARFC
chain 2: SWMEEVIKLCGRELVRAQIAICGMSTWSAAAGGGGSGGGGSGGGGSGGGGSACPPCPAPEFEGGPSVFLFPPKPKDTLMISRTPEVTCVVVDVSHEDPEVKFNWYVDGVEVHNAKTKPREEQYNSTYRVVSVLTVLHQDWLNGKEYKCKVSNKALPASIEKTISKAKGQPREPQVCTLPPSREEMTKNQVSLSCAVKGFYPSDIAVEWESNGQPENNYKTTPPVLDSDGSFFLVSKLTVDKSRWQQGNVFSCSVMHEALHNHYTQKSLSLSPGGGGGSGGGGSGGGGSGGGGGSSWMEEVIKLCGRELVRAQIAICGMSTWS
B5: RELAX0014 (ligand)
chain 1: MRVSEEWMDGFIRMCGREYARELIKICGASVGR
chain 2: ESGGLMSQQCCHVGCSRRSIAKLYC

Molecular target: T1, human RXFP1
Experiment: cell-based or functional assay

| Binder | EC50 hRXFP1 (M), cAMP HTRF assay [M] |
| --- | --- |
| B1 | 1.15e-12 |
| B2 | 3.57e-11 |
| B3 | 3.77e-11 |
| B4 | 1.06e-11 |
| B5 | 4.47e-12 |

Molecular target: T2, mouse RXFP1
Experiment: cell-based or functional assay

| Binder | EC50 mRXFP1 (M), cAMP HTRF assay [M] |
| --- | --- |
| B1 | 7.54e-13 |
| B2 | 9.1e-12 |
| B3 | 3.27e-11 |
| B4 | 1.74e-11 |
| B5 | 2.37e-12 |

Molecular target: T3, human RXFP2 (human, UniProt Q8WXD0 1-754)
T3 sequence (Q8WXD0 whole entry): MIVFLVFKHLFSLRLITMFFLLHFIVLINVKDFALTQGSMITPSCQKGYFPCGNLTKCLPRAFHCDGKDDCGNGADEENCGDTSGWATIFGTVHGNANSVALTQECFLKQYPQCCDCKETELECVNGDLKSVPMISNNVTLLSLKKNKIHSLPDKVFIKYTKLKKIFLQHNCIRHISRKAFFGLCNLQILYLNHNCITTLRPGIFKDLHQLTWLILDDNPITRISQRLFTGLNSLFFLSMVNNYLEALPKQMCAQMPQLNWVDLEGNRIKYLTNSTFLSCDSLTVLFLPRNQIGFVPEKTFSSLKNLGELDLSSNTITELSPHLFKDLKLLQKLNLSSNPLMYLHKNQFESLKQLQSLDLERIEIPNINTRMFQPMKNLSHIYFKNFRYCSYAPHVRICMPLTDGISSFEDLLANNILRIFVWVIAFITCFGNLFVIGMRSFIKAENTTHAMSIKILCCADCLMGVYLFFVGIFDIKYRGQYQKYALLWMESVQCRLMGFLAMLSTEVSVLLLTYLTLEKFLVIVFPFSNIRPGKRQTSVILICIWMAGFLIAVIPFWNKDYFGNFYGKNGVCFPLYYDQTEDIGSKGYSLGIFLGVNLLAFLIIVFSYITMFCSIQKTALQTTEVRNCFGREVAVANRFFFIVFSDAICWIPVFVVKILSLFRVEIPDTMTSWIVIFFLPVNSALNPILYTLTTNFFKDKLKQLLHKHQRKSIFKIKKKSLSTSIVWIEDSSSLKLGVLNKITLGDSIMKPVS
Experiment: cell-based or functional assay

| Binder | EC50 hRXFP2 (M), cAMP HTRF assay [M] |
| --- | --- |
| B1 | 1.75e-09 |
| B2 | 3.42e-08 |
| B3 | 3.24e-08 |
| B4 | 1.61e-08 |
| B5 | 1.78e-12 |

Molecular target: T1, human RXFP1
Experiment: cell-based or functional assay
Remark: another data set of the same source

| Binder | EC50 hRXFP1 (M), cAMP HTRF assay [M] |
| --- | --- |
| B1 | 1.15e-12 |
| B2 | 5.81e-11 |
| B3 | 3.32e-11 |
| B5 | 4.47e-12 |

Molecular target: T2, mouse RXFP1
Experiment: cell-based or functional assay
Remark: another data set of the same source

| Binder | EC50 mRXFP1 (M), cAMP HTRF assay [M] |
| --- | --- |
| B1 | 7.54e-13 |
| B2 | 2.24e-11 |
| B3 | 1.36e-11 |
| B5 | 2.37e-12 |

Molecular target: T3, human RXFP2
Experiment: cell-based or functional assay
Remark: another data set of the same source

| Binder | EC50 hRXFP2 (M), cAMP HTRF assay [M] |
| --- | --- |
| B1 | 1.75e-09 |
| B2 | 4.4e-08 |
| B3 | 4.2e-08 |
| B5 | 1.78e-12 |

Molecular target: T1, human RXFP1
Experiment: cell-based or functional assay
Remark: another data set of the same source

| Binder | EC50 hRXFP1 (M), cAMP HTRF assay [M] |
| --- | --- |
| B1 | 1.15e-12 |
| B2 | 5.81e-11 |
| B5 | 4.47e-12 |

Molecular target: T2, mouse RXFP1
Experiment: cell-based or functional assay
Remark: another data set of the same source

| Binder | EC50 mRXFP1 (M), cAMP HTRF assay [M] |
| --- | --- |
| B1 | 7.54e-13 |
| B2 | 2.24e-11 |
| B5 | 2.37e-12 |

Molecular target: T3, human RXFP2
Experiment: cell-based or functional assay
Remark: another data set of the same source

| Binder | EC50 hRXFP2 (M), cAMP HTRF assay [M] |
| --- | --- |
| B1 | 1.75e-09 |
| B2 | 4.4e-08 |
| B5 | 1.78e-12 |

Reference: patent publication US20250295737A1 (AstraZeneca / MedImmune, published 2025)
